The source of these data is patent US20250332297A1, “DLL3-SPECIFIC BINDING CONSTRUCTS AND THEIR USE IN RADIOTHERAPY” (MOLECULAR PARTNERS AG, priority 2024, published 2025).

The target of data set [1] is T1, NCI-H82 cells expressing human DLL3 (Homo sapiens, UniProt Q9NYJ7).
T1 construct: a human lung carcinoma cell line which endogenously expresses DLL3 on the surface; host or cells: NCI-H82
T1 sequence (Q9NYJ7 27-618): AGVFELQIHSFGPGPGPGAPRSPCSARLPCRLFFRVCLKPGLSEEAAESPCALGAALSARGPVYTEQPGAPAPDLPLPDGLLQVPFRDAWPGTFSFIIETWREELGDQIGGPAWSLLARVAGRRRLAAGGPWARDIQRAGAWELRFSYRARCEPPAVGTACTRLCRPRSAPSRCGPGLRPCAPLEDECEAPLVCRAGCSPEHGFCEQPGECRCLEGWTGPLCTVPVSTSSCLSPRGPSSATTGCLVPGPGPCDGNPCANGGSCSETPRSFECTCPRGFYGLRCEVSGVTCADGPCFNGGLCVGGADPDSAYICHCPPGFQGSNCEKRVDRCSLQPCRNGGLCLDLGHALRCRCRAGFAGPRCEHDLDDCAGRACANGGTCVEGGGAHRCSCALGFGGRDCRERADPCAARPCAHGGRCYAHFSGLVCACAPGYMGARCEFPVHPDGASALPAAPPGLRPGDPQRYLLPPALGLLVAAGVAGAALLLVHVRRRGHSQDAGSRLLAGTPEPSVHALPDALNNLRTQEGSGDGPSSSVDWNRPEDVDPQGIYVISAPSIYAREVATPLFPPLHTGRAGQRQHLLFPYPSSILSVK
Briefly: Cell binding titration on NCI-H82 cells. Format: cell-based. The procedure: Furthermore, cell binding titration assays were also performed with selected two domain (2D) designed ankyrin repeat proteins to determine binding to human cells expressing DLL3 endogenously, in absence and presence of human serum albumin. For this purpose, NCI-H82 cells were used, a human lung carcinoma cell line which endogenously expresses DLL3 on the surface. […] A non-binding DARPin comprising SEQ ID NO: 22 was used as a negative control.
In brief, 1×10^5 cells/well were resuspended in 100 μl DARPin dilution (500 nM, 1:5 serial diluted in PBS, 2% FBS) and incubated for 1 h at 4° C. This step was performed in absence and presence of 10 μM Human Serum Albumine (CSL Behring #150570). Cells were washed twice with PBS, 2% FBS and resuspended in 100 μl anti-DARPin antibody (rabbit anti-DARPin 1.4.8) and LIVE/DEAD cell stain (1:1000, Biolegend #423106). After incubation and washing, cells were incubated with detection antibody for 30 minutes (Goat […] IgG (H+L), AF647, Thermo Fisher #21445). Cells were fixed (Paraformaldehyde Solution, TCL119, LucernaChem) and acquired at Attune N×T (Thermo Life Technologies). Raw fcs files were exported and analyzed using FlowJo software. MFI values of live AF647-positive cells were exported from FlowJo and plotted using GraphPad Prism software.

Data set [2] relates to Dog DLL3-NTD. Briefly: SPR binding to dog DLL3-NTD (Example 11). The method, then:
The truncated dog DLL3 construct, comprising only the N-Terminal Domain (NTD, residues 27-189), was designed similarly to the human truncated target protein, with a C-terminal 6×His and Avi-tag. Co-expression was carried in Expi293F cells and purification was performed via Ni-NTA affinity chromatography followed by SEC. The final material was monomeric on size exclusion and stored in PBS pH 7.4 at the final concentration of ˜0.1-0.2 mg/ml.
The binding of 2D ankyrin repeat protein MAM279 as well as of MAM279 conjugated to the chelator DOTAM (the conjugation was performed as described in Example 3) to different target proteins was analyzed by Surface Plasmon Resonance (SPR). Specifically, the proteins analyzed were (i) MAM279 (SEQ ID NO: 11), with a Glycine-Serine (GS) at its N-terminal end and an N-terminal His-tag (SEQ ID NO: 19); and (ii) MAM279 (SEQ ID NO: 11), with a Glycine-Serine (GS) at its N-terminal end and a tag (SEQ ID NO: 10) at its C-terminal end (resulting in GS-MAM279-tag (SEQ ID NO: 15)), conjugated to the chelator DOTAM as described in Example 3.
A surface plasmon resonance (SPR) assay was used to determine the binding kinetics of the two proteins (i.e. MAM279 with and without conjugation to chelator) to different targets: the Extra-Cellular Domain (ECD) of human DLL3, the ECD of cynomolgus monkey DLL3, the N-Terminal Domain (NTD) only of human DLL3, and the NTD dog DLL3. The data were generated using BioRad ProteOn instrument in SPR running buffer (PBS, pH 7.4 containing 0.005% Tween 20©). […] The chip was coated with biotinylated target to reach a signal intensity of 1516 RU (human ECD), 257 RU (human NTD), 1500 RU (cyno ECD) and 228 RU (dog NTD). All analytes (various concentrations in 3-fold dilutions ranging from 500-6.17 nM) were injected in succession for 240 s (100 μl/min) and dissociation was recorded for 10800 s (100 μl/min). Each injection was followed by a regeneration step with 16 mM H3PO4 for 18 s. […] The obtained SPR traces were used to determine on-rate and off-rate interaction parameters.
On the technique in general: SPR reads the build-up and loss of mass on a sensor chip optically.

For data set [3], the target named is T2, mouse serum albumin (Mus musculus, UniProt P07724).
T2 construct: purchased Sigma-Aldrich
T2 sequence (P07724 25-608): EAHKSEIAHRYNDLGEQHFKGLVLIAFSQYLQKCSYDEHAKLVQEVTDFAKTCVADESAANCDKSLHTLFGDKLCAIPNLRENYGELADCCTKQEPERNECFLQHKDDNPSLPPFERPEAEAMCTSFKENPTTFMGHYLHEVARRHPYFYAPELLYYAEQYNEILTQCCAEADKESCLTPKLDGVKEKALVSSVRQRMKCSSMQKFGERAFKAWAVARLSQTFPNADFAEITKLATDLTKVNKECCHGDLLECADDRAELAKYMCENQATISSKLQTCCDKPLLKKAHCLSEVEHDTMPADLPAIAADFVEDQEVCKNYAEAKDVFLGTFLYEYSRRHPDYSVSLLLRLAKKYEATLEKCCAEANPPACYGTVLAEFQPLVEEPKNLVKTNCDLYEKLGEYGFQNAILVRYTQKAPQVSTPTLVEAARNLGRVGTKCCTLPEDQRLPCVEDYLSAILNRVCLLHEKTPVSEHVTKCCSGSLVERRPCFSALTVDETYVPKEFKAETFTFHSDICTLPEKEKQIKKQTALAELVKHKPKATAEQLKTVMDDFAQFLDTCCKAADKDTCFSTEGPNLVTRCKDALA
Briefly: SPR binding to mouse serum albumin (Example 18). The conditions noted are these: immobilized MSA, 1:1 Langmuir, Table 21. The procedure: SPR multi-trace analyses were performed similarly as described in previous Examples. The following ankyrin repeat proteins analyzed: (i) MAM279 (SEQ ID NO: 11) (with a Glycine-Serine (GS) at its N-terminal end); and (ii) MAM279 (SEQ ID NO: 11), with a Glycine-Serine (GS) at its N-terminal end and a tag (SEQ ID NO: 10) at its C-terminal end (resulting in GS-MAM279-tag (SEQ ID NO: 15)), conjugated to the chelator DOTAM as described in Example 3.
All analytes (3-fold dilution ranging from 600-7.41 nM) were injected in succession for 240 s and dissociation was recorded for 600 s using a constant flow of 25 μl/min (HSA) or 100 μl/min (MSA) (25 μl/min). […] The obtained SPR traces were used to determine the DARPin-serum albumin interaction parameters, and results are summarized in Table 21.

The mark [4] stands for this setting: absence of human serum albumin, read-out: Cell binding EC50, w/o HSA.
The mark [5] stands for this setting: presence of 10 μM human serum albumin, read-out: Cell binding EC50, with HSA.
Where [6] appears, read: SPR, immobilized biotinylated target, 1:1 Langmuir, Table 15.

Read-outs that look alike come from different tables or passages of the source.

B1: MAM279: Two domain (2D) ankyrin repeat protein: serum albumin-specific domain (SEQ ID NO: 7), PT linker, DLL3-specific domain of MAM093 (protein)
chain: DLGKKLLEAARAGQDDEVRELLKAGADVNAKDYFSHTPLHLAARNGHLKIVEVLLKAGADVNAKDFAGKTPLHLAADAGHLEIVEVLLKAGADVNAQDIFGKTPADIAADAGHEDIAEVLQKAAGSPTPTPTTPTPTPTTPTPTPTGSDLGKKLLAAAAQGQDDEVRELLKAGANVNAKDLFGYTPLHLAAWRGHLEIVEVLLKAGADVNAKDAAGETPLHLAAWFGHLEIVEVLLKAGADVNAQDLQGKTPADLAAKEGHEDIAEVLQKAA
modifications: Ankyrin repeat protein (MAM279)
In the case of B1, the EC50 in data set [1] (setting [4]) amounted to 2.5 nM. Moreover, the EC50 in data set [1] (setting [5]) was 2.1 nM. Besides, in data set [2] (SPR KD comparison), the “fold lower affinity for dog DLL3-NTD than for human DLL3-ECD” value is “about 10 fold”. Also, in data set [2] (setting [6]), the Kd (commonly the concentration at which binding is half-saturated) was 1.2 nM, the “Koff Dog DLL3-NTD” value came to 5.58e-05 s⁻¹ and the “Kon Dog DLL3-NTD” value turned out to be 46400 M⁻¹ s⁻¹. In data set [3], the Kd came out at 144 nM, the “Koff MSA” value came out at 0.0383 s⁻¹ and the “Kon MSA” value worked out at 267000 M⁻¹ s⁻¹.

B2: MAM283: Two domain (2D) ankyrin repeat protein: serum albumin-specific domain (SEQ ID NO: 7), PT linker, DLL3-specific domain (SEQ ID NO: 3) (protein)
chain: DLGKKLLEAARAGQDDEVRELLKAGADVNAKDYFSHTPLHLAARNGHLKIVEVLLKAGADVNAKDFAGKTPLHLAADAGHLEIVEVLLKAGADVNAQDIFGKTPADIAADAGHEDIAEVLQKAAGSPTPTPTTPTPTPTTPTPTPTGSDLGKKLLAAAADGQDDEVRELLQAGADVNAKDLFGYTPLHLAAWRGHLEIVEVLLEAGADVNAKDAAGETPLHLAAWFGHLEIVEVLLEAGADVNAQDVQGKTPADLAAKEGHEDIAEVLQQAA
modifications: Ankyrin repeat protein (MAM283)
Turning to B2, the values for the EC50 in data set [1] (setting [4]) and in data set [1] (setting [5]) were 5.4 nM and 8.1 nM, respectively.

B3: MAM282: Two domain (2D) ankyrin repeat protein: serum albumin-specific domain (SEQ ID NO: 7), PT linker, DLL3-specific domain (SEQ ID NO: 2) (protein)
chain: DLGKKLLEAARAGQDDEVRELLKAGADVNAKDYFSHTPLHLAARNGHLKIVEVLLKAGADVNAKDFAGKTPLHLAADAGHLEIVEVLLKAGADVNAQDIFGKTPADIAADAGHEDIAEVLQKAAGSPTPTPTTPTPTPTTPTPTPTGSDLGKKLLAAAREGQDDEVRELLKAGADVNAKDIWGQTPLHIAAWFGHLEIVEVLLKAGADVNAKDQTGHTPLHLAAKFGHLEIVEVLLKAGADVNAQDLLGRTPADLAAEEGHEDIAEVLQKAA
modifications: Ankyrin repeat protein (MAM282)
Turning to B3, the EC50 in data set [1] (setting [4]) and in data set [1] (setting [5]) was 2.6 nM each time.

B4: MAM279-DOTAM: GS-MAM279-tag (SEQ ID NO: 15) conjugated to the chelator DOTAM via C-terminal tag and maleimide connector, no radionuclide (conjugate)
chain: GSDLGKKLLEAARAGQDDEVRELLKAGADVNAKDYFSHTPLHLAARNGHLKIVEVLLKAGADVNAKDFAGKTPLHLAADAGHLEIVEVLLKAGADVNAQDIFGKTPADIAADAGHEDIAEVLQKAAGSPTPTPTTPTPTPTTPTPTPTGSDLGKKLLAAAAQGQDDEVRELLKAGANVNAKDLFGYTPLHLAAWRGHLEIVEVLLKAGADVNAKDAAGETPLHLAAWFGHLEIVEVLLKAGADVNAQDLQGKTPADLAAKEGHEDIAEVLQKAAGSGSC
modifications: DOTAM chelator via maleimide on C-terminal tag; Ankyrin repeat protein with tag (GS-MAM279-tag)
On to B4, for which, in data set [2] (setting [6]), the “Koff Dog DLL3-NTD” value amounted to 4.86e-05 s⁻¹ and the “Kon Dog DLL3-NTD” value turned out to be 33400 M⁻¹ s⁻¹. For the same molecule, in data set [3], the “Koff MSA” value was 0.0425 s⁻¹ and the “Kon MSA” value was 155000 M⁻¹ s⁻¹.
